Test results taken from patent publication EP4790069A1 (Kyoto University, dated 2026).

Tests used:
mouse CD153 = molecular target: T1, mouse CD153 (mouse, UniProt P32972 1-239); experiment: flow cytometry on EL4 cells stably expressing mouse CD153
T1 construct: whole, on cells; also called mCD153
T1 sequence (looked up): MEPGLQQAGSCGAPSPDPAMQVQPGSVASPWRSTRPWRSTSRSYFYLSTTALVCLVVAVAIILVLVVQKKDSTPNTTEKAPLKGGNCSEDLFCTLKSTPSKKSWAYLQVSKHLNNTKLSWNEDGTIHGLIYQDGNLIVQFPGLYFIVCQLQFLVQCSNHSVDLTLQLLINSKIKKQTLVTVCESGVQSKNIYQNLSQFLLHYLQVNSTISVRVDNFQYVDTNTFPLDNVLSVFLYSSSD

human CD153 = molecular target: T2, human CD153 (human, UniProt P32971 1-234); experiment: flow cytometry, hybridoma supernatant on 293H cells expressing hCD153
T2 construct: whole, on cells; also called hCD153; CD30L
T2 sequence (looked up): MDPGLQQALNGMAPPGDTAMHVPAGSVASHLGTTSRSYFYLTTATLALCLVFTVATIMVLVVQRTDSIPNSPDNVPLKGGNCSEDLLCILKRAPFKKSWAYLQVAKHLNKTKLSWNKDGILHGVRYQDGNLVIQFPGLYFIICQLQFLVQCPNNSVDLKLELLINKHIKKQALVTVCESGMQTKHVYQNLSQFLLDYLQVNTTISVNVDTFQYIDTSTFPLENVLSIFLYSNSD

binding result (human CD153): binds
B1: anti-human CD153 monoclonal antibody 2H7-9 (antibody, V domains shown)
VH: RVQLQQSGAELVRPGTSVKISCKASGYAFTNYWLGWVKQRPGHGLEWIGDIYPGNYNSYSNEKFKGKATLTADESSSTAYMQLSSLTSEDSAVYFCARIYGNYWIFDVWGAGTTVTVSS
VL: QIVLTQSPAIMSASPGEKVTMTCSASSSVNYMHWFQQKPGTSPKLWIYSTSDLASGVPARFSGSGSGTSYSLTISRMEAEDAATYYCQQRSSYPLTFGAGTKLELK
notes: Mouse hybridoma antibody (CD153-KO B6 mouse), purified with Protein A and detected with anti-mouse IgG
binding result (mouse CD153): no binding (tested: 160 µg/ml to 0.00977 µg/ml)
